Test results taken from patent US20230093399A1, “METHODS FOR GENERATING PLURIPOTENT STEM CELL-DERIVED BROWN FAT CELLS” (AgeX Therapeutics, Inc., priority 2013, published 2023).

Tested on: cell line E15 and the line W10
Experiment: Cell lines E15 and W10 in micromass versus HyStem-C culture with BMP4, gene expression
Format: cell-based, human
Conditions: micromass conditions supplemented with 10 ng/mL BMP4
Procedure: In addition, the incubation of hEP cell lines in HyStem-C (BioTime, Inc. Alameda, Calif.) allowed the accumulation of a large amount of data on the biological influence of HyStem-C (BioTime, Inc. Alameda, Calif.) on diverse cell types. […] This physiological effect on myofibroblastic differentiation seen in many lines cultured in HyStem-C (BioTime, Inc. Alameda, Calif.) beads (i.e., the strong reduction in MYH11 expression) has therapeutic implications in vivo, such as in inhibiting fibrosis or adhesions. It also is of benefit in surgical settings where cells could be transplanted to regenerate tissue function while inhibiting adhesions and related fibrotic process at the surgical site.
The present invention utilizes micromass differentiations to generate high-density cultures, thereby predisposing hEP cells to differentiation in the presence of exogenous factors. Differentiation by micromass culture was performed according to the manufacturer's (BioTime) instructions (Chondrogenesis Differentiation Kit ES-K42). Briefly, cells were cultured in the undifferentiated state, trypsinized (0.25% w/v trypsin/EDTA (Invitrogen)), diluted 1:3 with PBS (Ca and Mg free), and resuspended at a cell density of 2.0×10^7 cells/ml in their respective growth media. […]

B1: BMP4: Bone Morphogenetic Protein 4, TGF-beta superfamily member (protein, UniProt P12644 293-408, looked up)
Bone morphogenetic protein 4: SPKHHSQRARKKNKNCRRHSLYVDFSDVGWNDWIVAPPGYQAFYCHGDCPFPLADHLNSTNHAIVQTLVNSVNSSIPKACCVPTELSAISMLYLDEYDKVVLKNYQEMVVEGCGCR
- MYH11 expression: strongly induced
